The results in this text go back to IntAct's records for PubMed 29039417.

First the molecules themselves.
B1: BBSome complex member BBS5 (Homo sapiens), Q8N3I7 (parent)
chain: MSVLDALWEDRDVRFDLSAQQMKTRPGEVLIDCLDSIEDTKGNNGDRGRLLVTNLRILWHSLALSRVNVSVGYNCILNITTRTANSKLRGQTEALYILTKCNSTRFEFIFTNLVPGSPRLFTSVMAVHRAYETSKMYRDFKLRSALIQNKQLRLLPQEHVYDKINGVWNLSSDQGNLGTFFITNVRIVWHANMNDSFNVSIPYLQIRSIKIRDSKFGLALVIESSQQSGGYVLGFKIDPVEKLQESVKEINSLHKVYSASPIFGVDYEMEEKPQPLEALTVEQIQDDVEIDSDGHTDAFVAYFADGNKQQDREPVFSEELGLAIEKLKDGFTLQGLWEVMS
partner: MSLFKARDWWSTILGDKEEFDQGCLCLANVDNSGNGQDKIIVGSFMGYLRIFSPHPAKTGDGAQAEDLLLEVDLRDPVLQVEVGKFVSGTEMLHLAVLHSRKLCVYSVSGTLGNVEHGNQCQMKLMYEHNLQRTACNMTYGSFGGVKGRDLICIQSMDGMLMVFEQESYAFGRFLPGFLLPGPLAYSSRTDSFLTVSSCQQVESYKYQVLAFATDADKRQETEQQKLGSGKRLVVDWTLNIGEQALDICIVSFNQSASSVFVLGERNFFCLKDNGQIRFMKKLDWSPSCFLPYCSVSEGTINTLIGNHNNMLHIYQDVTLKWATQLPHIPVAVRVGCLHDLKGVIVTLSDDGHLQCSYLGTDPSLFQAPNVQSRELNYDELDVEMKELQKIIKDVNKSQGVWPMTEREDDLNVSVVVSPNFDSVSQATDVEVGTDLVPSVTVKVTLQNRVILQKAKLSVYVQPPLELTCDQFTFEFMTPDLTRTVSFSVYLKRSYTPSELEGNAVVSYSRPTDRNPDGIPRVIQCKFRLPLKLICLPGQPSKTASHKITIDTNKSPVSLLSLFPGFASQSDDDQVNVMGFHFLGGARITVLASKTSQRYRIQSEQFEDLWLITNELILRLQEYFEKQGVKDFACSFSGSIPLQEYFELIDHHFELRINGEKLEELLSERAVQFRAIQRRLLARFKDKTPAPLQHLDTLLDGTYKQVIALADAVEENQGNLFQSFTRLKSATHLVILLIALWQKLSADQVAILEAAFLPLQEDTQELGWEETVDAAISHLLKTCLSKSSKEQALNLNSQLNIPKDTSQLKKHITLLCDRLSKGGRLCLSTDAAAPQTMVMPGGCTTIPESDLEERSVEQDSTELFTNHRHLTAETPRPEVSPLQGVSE

Variants of B1 are the subject of the assay. Conditions: with pthb1_human BBS9, Q3SYG4.
T83K: the “effect of a mutation on the interaction” value is listed as “with no effect”.
As to S144K, the “effect of a mutation on the interaction” value is recorded as “with no effect”.
The result for T40K reads “with no effect”.
In the case of V300K it was “with no effect”.
The result for V167K reads “with no effect”; that for V167A, “with no effect”; that for F331K, “with no effect”.
For C75A, the “effect of a mutation on the interaction” value is given as “with no effect”.
Consider Q334A, for which the “effect of a mutation on the interaction” value is “with no effect”.
The result for P156E reads “with no effect”; that for E132A, “with no effect”.
In the case of F180E it was “with no effect”; in that of F180K, “disrupting interaction strength”; in that of S70K, “with no effect”.
In the case of G27E, the “effect of a mutation on the interaction” value is recorded as “disrupting interaction strength”.
The result for M1K reads “with no effect”; that for D293A, “with no effect”.
In the case of K236A it was “with no effect”; in that of D287E, “with no effect”.
The result for L50E reads “with no effect”; that for L50A, “disrupting interaction strength”; that for Q148A, “with no effect”.
For D139K, the “effect of a mutation on the interaction” value is given as “with no effect”.
In the case of D139E it was “with no effect”; in that of D329K, “with no effect”.
The result for D329E reads “with no effect”; that for S341E, “with no effect”; that for K135A, “with no effect”.
The result for L4E reads “with no effect”; that for S134K, “with no effect”; that for L152E, “with no effect”.
Take L152A: the “effect of a mutation on the interaction” value is given as “with no effect”.
In the case of L233E it was “with no effect”; in that of Q157K, “with no effect”.
With S228K, the “effect of a mutation on the interaction” value is listed as “with no effect”.
The result for S228E reads “with no effect”.
The result for T122E reads “with no effect”; that for L253K, “with no effect”.
The result for N102K reads “with no effect”.
Consider D291A, for which the “effect of a mutation on the interaction” value is recorded as “with no effect”.
In the case of R82E it was “with no effect”; in that of R82K, “with no effect”; in that of Y267E, “with no effect”.
The result for L218A reads “with no effect”; that for L55A, “disrupting interaction strength”; that for N149A, “with no effect”.
In the case of T24K it was “with no effect”; in that of G178K, “with no effect”; in that of I262K, “with no effect”.
For the variant V3E, the “effect of a mutation on the interaction” value is reported as “with no effect”.
The result for L204K reads “with no effect”; that for L204E, “with no effect”.
In the case of R138E it was “with no effect”; in that of S36E, “with no effect”.
In the case of S36A it was “with no effect”; in that of R186E, “disrupting interaction strength”.
As to L7A, the “effect of a mutation on the interaction” value was “with no effect”.
In the case of R11K, the “effect of a mutation on the interaction” value is “with no effect”.
S18A: the “effect of a mutation on the interaction” value is on record as “with no effect”.
The result for S18E reads “with no effect”; that for D173E, “with no effect”.
Regarding D173A, the “effect of a mutation on the interaction” value is given as “with no effect”.
F303E: the “effect of a mutation on the interaction” value is “with no effect”.
Regarding E38A, the “effect of a mutation on the interaction” value is on record as “with no effect”.
In the case of I164E it was “with no effect”; in that of P115K, “with no effect”.
On to Q274E, for which the “effect of a mutation on the interaction” value was “with no effect”.
In the case of Q285K it was “with no effect”; in that of R49E, “with no effect”; in that of S246E, “with no effect”.
The result for D16S reads “disrupting interaction strength”.
In the case of P314K it was “with no effect”; in that of H128K, “with no effect”.
For P275A, the “effect of a mutation on the interaction” value was “with no effect”.
The result for A298E reads “with no effect”; that for A298K, “with no effect”.
In the case of Q91K it was “with no effect”; in that of A191E, “with no effect”.
In the case of G321K it was “with no effect”.
As to S86K, the “effect of a mutation on the interaction” value is “with no effect”.
For S86E, the “effect of a mutation on the interaction” value is given as “with no effect”.
The result for E268A reads “with no effect”; that for R129E, “with no effect”.
The result for Y302K reads “disrupting interaction strength”.
In the case of Y302E it was “with no effect”.
As for I237K, the “effect of a mutation on the interaction” value was “with no effect”.
In the case of F106E it was “with no effect”; in that of E271A, “with no effect”.
In the case of E282A it was “with no effect”; in that of V185E, “with no effect”.
The result for E241A reads “with no effect”; that for F121K, “with no effect”.
For the variant L88A, the “effect of a mutation on the interaction” value is reported as “with no effect”.
The result for N176A reads “with no effect”.
For the variant F15E, the “effect of a mutation on the interaction” value is given as “disrupting interaction strength”.
As for F15L, the “effect of a mutation on the interaction” value is recorded as “disrupting interaction strength”.
In the case of V160K it was “with no effect”; in that of R312A, “with no effect”.
In the case of L327K it was “with no effect”; in that of L327A, “with no effect”.
As for L327E, the “effect of a mutation on the interaction” value was “with no effect”.
The result for H295E reads “with no effect”; that for G90K, “with no effect”; that for M136A, “with no effect”.
The result for T104K reads “with no effect”; that for K242E, “with no effect”.
The result for G175K reads “with no effect”; that for K150E, “with no effect”; that for E277K, “with no effect”.
Turning to I109A, the “effect of a mutation on the interaction” value is reported as “with no effect”.
Take F263K: the “effect of a mutation on the interaction” value is on record as “with no effect”.
T183E: the “effect of a mutation on the interaction” value is “with no effect”.
In the case of M22K it was “disrupting interaction strength”.
In the case of L170K it was “with no effect”; in that of A6E, “with no effect”; in that of T81A, “with no effect”.
In the case of T81K it was “with no effect”; in that of I290K, “with no effect”; in that of N44A, “with no effect”.
As for Q151A, the “effect of a mutation on the interaction” value is given as “with no effect”.
As for V71K, the “effect of a mutation on the interaction” value is “with no effect”.
In the case of T133K it was “with no effect”.
The result for T111A reads “with no effect”.
In the case of T111E it was “with no effect”.
For the variant S224E, the “effect of a mutation on the interaction” value was “with no effect”.
In the case of V188K it was “with no effect”.
In the case of D162E it was “with no effect”; in that of L30P, “disrupting interaction strength”.
Consider K308E, for which the “effect of a mutation on the interaction” value was “with no effect”.
The result for A126K reads “with no effect”; that for V232K, “with no effect”.
The result for Y73A reads “with no effect”.
In the case of K100A it was “with no effect”; in that of R56K, “disrupting interaction strength”; in that of L51A, “with no effect”.
Regarding N198A, the “effect of a mutation on the interaction” value was “with no effect”.
As for N198E, the “effect of a mutation on the interaction” value is on record as “with no effect”.
For L336K, the “effect of a mutation on the interaction” value is “with no effect”.
In the case of Q174K it was “with no effect”; in that of K87E, “with no effect”; in that of S117E, “with no effect”.
In the case of S117K it was “with no effect”; in that of A278K, “with no effect”.
The result for E289K reads “with no effect”.
Q244A: the “effect of a mutation on the interaction” value was “with no effect”.
In the case of G229K it was “with no effect”; in that of Y96A, “with no effect”.
With D35E, the “effect of a mutation on the interaction” value is on record as “with no effect”.
The result for A84E reads “with no effect”.
The result for G45E reads “with no effect”; that for A130K, “disrupting interaction strength”.
The result for S2A reads “with no effect”; that for I324K, “with no effect”; that for I284E, “with no effect”.
For S252A, the “effect of a mutation on the interaction” value was “with no effect”.
In the case of H60A it was “with no effect”; in that of L220K, “with no effect”.
Regarding N251K, the “effect of a mutation on the interaction” value is given as “with no effect”.
With N251A, the “effect of a mutation on the interaction” value is on record as “with no effect”.
Take D10E: the “effect of a mutation on the interaction” value was “with no effect”.
In the case of D5A it was “with no effect”; in that of W168A, “with no effect”.
In the case of W168K it was “with no effect”; in that of K248A, “with no effect”.
In the case of R153E it was “with no effect”; in that of N112E, “with no effect”.
Take G72K: the “effect of a mutation on the interaction” value was “with no effect”.
As to G72A, the “effect of a mutation on the interaction” value is recorded as “with no effect”.
In the case of G217E it was “with no effect”; in that of R14A, “with no effect”; in that of I76K, “with no effect”.
As for T80E, the “effect of a mutation on the interaction” value is recorded as “with no effect”.
The result for V281A reads “with no effect”; that for V281K, “with no effect”.
In the case of L279K it was “with no effect”; in that of L279A, “with no effect”.
In the case of G294A, the “effect of a mutation on the interaction” value was “with no effect”.
In the case of L154K it was “with no effect”; in that of V339E, “with no effect”.
In the case of G48S it was “disrupting interaction strength”; in that of C101K, “with no effect”.
